One experiment has as its system 293T cells. The experiment is described as follows: Hexose uptake assay: 2-deoxyglucose. The class given is cell-based, human. As to conditions: transfected 293T cells vs control cells. Here is the method:
Assay of hexose uptake. 2-deoxy-D[1-^3H]glucose, D[U-^14C]fructose and 3-O-[^14C]methyl-D-glucose were obtained from Amersham. Hexose uptake assay were adapted from Harrison et al. 1991). After transfection, approximately 250,000 were seeded/well in 24-well plates. […] Uptake was initiated by adding labeled hexoses to a final concentration of 0.1 mM (2 μCi/ml for 2-2-deoxy-D[1-^3H]glucose and 0.2 μCi/ml for D[U-^14C]fructose and 3-O-[^14C]methyl-D-glucose) and cells were incubated for 5′ additional minutes. Cells were then resuspended in 500 μl cold serum-free glucose-free DMEM, wash one time in serum-free glucose-free DMEM, and solubilized in 400 μl of 0.1% SDS. 3 μl was used for Bradford normalization, while the rest was used for detection of either ^3H or ^14C by liquid scintillation in a Beckman counter.

Another experiment relates to MCT1 and CD147. The experiment is described as follows: RBD binding upon overexpression of MCT1 and CD147. Set-up: species or system human. From the text:
Extracellular lactate accumulates in cell cultures following its transport across cellular membranes by the MCT1 monocarboxylate transporter [Garcia, 1994]. Because HTLV and MLV share a common organization of the extracellular envelope [Kim, 2000] and the receptors for MLV Env are multispanning metabolite transporters [Overbaugh, 2001], we assessed whether the HTLV RBD bound to MCT1. Moreover, similar to our previous data concerning expression of the HTLV receptor on T cells [Manel, 2003], expression of MCT1 chaperone CD147 [Kirk, 2000] increases during T cell activation [Kasinrerk, 1992].
Expression vectors. Full length envelope expression vectors for HTLV-1 (pCEL/2[Denesvre, 1995]) and Friend ecotropic MLV (pCEL/F [Denesvre, 1995]), have been previously described. For the HTLV-2 envelope, a fragment from pHTE2 [Rosenberg, 1998] encompassing the tax, rex and env genes and the 3′ LTR was inserted in the pCSI [Battini, 1999] vector (pCSIX.H2). […]
(§1) Binding assays. […] Binding was analyzed on a FACSCalibur (Becton Dickinson) and data analysis was performed using CellQuest (Becton Dickinson) and WinMDI (Scripps) softwares.

In a further experiment the test system is murine erythrocytes. The experiment is described as follows: RBD binding on murine erythrocytes.
Another experiment concerns the target T1, GLUT-1 (Homo sapiens, UniProt P11166).
T1 construct: factor Xa cleavage site (C); His (C); expressed in transfected cells
T1 sequence (P11166 1-492): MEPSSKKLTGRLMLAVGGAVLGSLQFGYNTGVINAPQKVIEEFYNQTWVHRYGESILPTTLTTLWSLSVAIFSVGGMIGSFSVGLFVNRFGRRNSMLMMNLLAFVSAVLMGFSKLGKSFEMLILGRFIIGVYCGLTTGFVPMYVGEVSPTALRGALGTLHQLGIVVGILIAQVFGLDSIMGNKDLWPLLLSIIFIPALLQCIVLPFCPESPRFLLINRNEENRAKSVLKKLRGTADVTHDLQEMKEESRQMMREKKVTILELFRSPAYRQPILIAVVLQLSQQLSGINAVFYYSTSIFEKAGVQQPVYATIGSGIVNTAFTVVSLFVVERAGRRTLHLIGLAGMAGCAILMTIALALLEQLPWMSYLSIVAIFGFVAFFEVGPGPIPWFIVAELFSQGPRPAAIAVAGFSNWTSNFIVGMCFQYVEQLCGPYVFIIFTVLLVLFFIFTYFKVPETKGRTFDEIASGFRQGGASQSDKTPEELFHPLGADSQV
Briefly: RBD binding to cells overexpressing GLUT-1.
From the text: In order to directly test the ability of HTLV envelopes to bind GLUT-1, we derived a tagged GLUT-1 expression vector and overexpressed this protein in HeLa cells. […] GLUT-3 is the closest isoform to GLUT-1, and transports glucose with kinetics similar to that of GLUT-1. Thus, we derived a tagged GLUT-3 expression vector. […] To determine if GLUT-1 transfected cells were directly responsible for the observed increased in H1RBD binding, we derived fluorescent tagged GLUT-1 and GLUT-3 to uniquevocally identity GLUT-overexpressing cells in the course of our FACS analysis. […] Consequently, we tested if HTLV glycoproteins directly interact with GLUT-1 proteins. To this end, we evaluated the ability of H1RBD to immunoprecipitate GLUT-1. […] Therefore, the GLUT-1 glucose transporter is an essential component of the HTLV envelope receptor.
Expression vectors. Full length envelope expression vectors for HTLV-1 (pCEL/2[Denesvre, 1995]) and Friend ecotropic MLV (pCEL/F [Denesvre, 1995]), have been previously described. For the HTLV-2 envelope, a fragment from pHTE2 [Rosenberg, 1998] encompassing the tax, rex and env genes and the 3′ LTR was inserted in the pCSI [Battini, 1999] vector (pCSIX.H2). Full length envelope expression vectors for amphotropic MLV (pCSI.A), or devoid of its R peptide (pCSI.AΔR), and H183FEnv that contains the N-terminal 183 amino acids of the HTLV-1 receptor-binding domain in the F-MLV envelope background, as well as truncated envelope expression vectors, derived from pCSI and encoding either of the first 215 residues of HTLV-1 SU (H1RBD), the first 178 residues of HTLV2-SU (H2RBD) or the first 397 residues of the amphotropic murine leukemia virus (MLV) SU (Amp), fused to a C-terminal rabbit IgG Fc tag (rFc) or to EGFP (H2RBD-GFP). All point mutations introduced in HTLV-1 and -2 RBD constructs were generated using the quickchange site-directed mutagenesis method and mutations were verified by sequencing. Human Glut-1 and Glut-3 cDNA were amplified by PCR from the pLib HeLa cDNA library (Clontech), and inserted into pCHIX, a modified version of the pCSI vector that contains a cassette comprising a factor Xa cleavage site, two copies of the hemagglutinin (HA) tag, and a histidine tag. The resulting construct (pCHIX.hGLUT1) encodes a GLUT-1 protein with a HA-His tag at the C-terminal end. GLUT-1 and GLUT-3 were also inserted in a modified pCSI vector containing a DsRed2 C-terminal tag. Similarly, human CD147 was amplified from 293T total RNA by RT-PCR and inserted into the pCHIX backbone in frame with the HA-His tag (pCHIX.hCD147).
as §1

The source of these data is patent US9777044B2, “GLUT-1 as a receptor for HTLV envelopes and its uses” (CENTRE NATIONAL DE LA RECHERCHE SCIENTIFIQUE (CNRS), priority 2003, dated 2017).

B1: H1RBD: first 215 residues of HTLV-1 SU fused to a C-terminal rabbit IgG Fc tag (rFc) (protein)
chain: DYSPSCCTLTIGVSSYHSKPCNPAQPVCSWTLDLLALSADQALQPPCPNLVSYSSYHATYSLYLFPHWIKKPNRNGGGYYSASYSDPCSLKCPYLGCQSWTCPYTGAVSSPYWKFQQDVNFTQEVSRLNINLHFSKCGFPFSLLVDAPGYDPIWFLNTEPSQLPPTAPPLLPHSNLDHILEPSIPWKSKLLTLVQVDVPRDCGCKPCICTVPEVSSVFIFPPKPKDVLTITLTPKVTCVVVDISKDDPEVQFSWFVDDVEVHTAQTQPREEQFNSTFRSVSELPIMHQDWLNGKEFKCRVNSAAFPAPIEKTISKTKGRPKAPQVYTIPPPKEQMAKDKVSLTCMITDFFPEDITVEWQWNGQPAENYKNTQPIMDTDGSYFVYSKLNVQKSNWEAGNTFTCSVLHEGLHNHHTEKSLSHSPGK
Take B1: the “decrease in 2-deoxyglucose uptake” value with 293T cells is on record as “approximately 4 fold”. For the same molecule, the “H1RBD binding upon separate and combined overexpression of MCT1 and CD147” value in the experiment on MCT1 and CD147 is reported as “did not result in increased H1RBD binding”. In the experiment with murine erythrocytes, the “binding on murine erythrocytes” value is “no significant H1RBD binding could be detected”. Moreover, in the experiment with GLUT-1 (fluorescent tagged GLUT-1, FACS analysis), the “H1RBD binding to cells overexpressing GLUT-1-DsRed2” value is reported as “significant increase”. In addition, in the experiment with GLUT-1 (tagged GLUT-1 expression vector, HeLa cells / 293T cells (FIG. 4a legend)), the “binding upon GLUT-1 overexpression” value was “dramatically increased”.
